Assays:
[1] = molecular target: T1, peptide of Example 2(22) (not fully specified)
T1 chain: PQQNXX

[2] = molecular target: T2, peptide of Example 2(78)
T2 chain: LSEXAX

[3] = molecular target: T3, peptide of Example 2(16)
T3 chain: NPQQAXX

[4] = molecular target: T4, peptide of Example 2(57)
T4 chain: TLSEXX

[5] = molecular target: T5, peptide of Example 2(34)
T5 chain: PQDEXX

[6] = molecular target: T6, peptide of Example 2(3)
T6 chain: PQQAXX

[7] = molecular target: T7, peptide of Example 2(83)
T7 chain: GLSEXAX

[8] = molecular target: T8, peptide of Example 2(80)
T8 chain: LSEXAX

[9] = molecular target: T9, peptide of Example 2(54)
T9 chain: KLSEXX

[10] = molecular target: T10, peptide of Example 2(63)
T10 chain: PNNLSEXX

[11] = molecular target: T11, peptide of Example 2(33)
T11 chain: PQEEXX

[12] = molecular target: T12, peptide of Example 2(11)
T12 chain: PQQAXX

[13] = molecular target: T13, peptide of Example 2(25)
T13 chain: PQQMXX

[14] = molecular target: T14, peptide of Example 2(45)
T14 chain: PTSEXX

[15] = molecular target: T15, peptide of Example 2(36)
T15 chain: PNSEXX

[16] = molecular target: T16, peptide of Example 2(61)
T16 chain: KNLSEXX

[17] = molecular target: T17, peptide of Example 2(24)
T17 chain: PQQGXX

[18] = molecular target: T18, Nα-Me-GlySerGlyAla(2-Naph)AlaAla-DCHA.TFMSA
T18 chain: GSGXAX

[19] = molecular target: T19, ProLeuSerGluAla(2-Naph)Ala-pNA
T19 chain: PLSEXX

[20] = molecular target: T20, peptide of Example 2(69)
T20 chain: XLSEXX

[21] = molecular target: T21, peptide of Example 2(56)
T21 chain: SLSEXX

[22] = molecular target: T22, peptide of Example 2(7)
T22 chain: PQQAXX

[23] = molecular target: T23, Nα-Me-GlyLeuSerGluAla(2-Naph)Ala-pNA.TFMSA
T23 chain: GLSEXX

[24] = molecular target: T24, peptide of Example 2(51)
T24 chain: GLSEXX

[25] = molecular target: T25, peptide of Example 2(53)
T25 chain: QLSEXX

[26] = molecular target: T26, peptide of Example 2(39)
T26 chain: PMSEXX

[27] = molecular target: T27, peptide of Example 2(14)
T27 chain: KPQQAXX

[28] = molecular target: T28, peptide of Example 2(18)
T28 chain: APQQAXX

[29] = molecular target: T29, peptide of Example 2(23)
T29 chain: PQQQXX

B1: human pepsin II (protein)
chain: SVTYEPMAYMDAAYFGEISIGTPPQNFLVLFDTGSSNLWVPSVYCQSQACTSHSRFNPSESSTYSTNGQTFSLQYGSGSLTGFFGYDTLTVQSIQVPNQEFGLSENEPGTNFVYAQFDGIMGLAYPALSVDEATTAMQGMVQEGALTSPVFSVYLSNQQGSSGGAVVFGGVDSSLYTGQIYWAPVTQELYWQIGIEEFLIGGQASGWCSEGCQAIVDTGTSLLTVPQQYMSALLQATGAQEDEYGQFLVNCNSIQNLPSLTFIINGVEFPLPPSSYILSNNGYCTVGVEPTYLSSQNGQPLWILGDVFLRSYYSVYDLGNNRVGFATAA
pepsin II digesting rate (µM/min · 1 µg Enz) [1]: 12.9 | ration of digesting rate (pepsin II/ pepsin I) [1]: 223 | pepsin II digesting rate (µM/min · 1 µg Enz) [2]: 54.4 | ration of digesting rate (pepsin II/ pepsin I) [2]: 20.7 | pepsin II digesting rate (µM/min · 1 µg Enz) [3]: 8.95 | ration of digesting rate (pepsin II/ pepsin I) [3]: 1090 | pepsin II digesting rate (µM/min · 1 µg Enz) [4]: 18.8 | ration of digesting rate (pepsin II/ pepsin I) [4]: 661 | pepsin II digesting rate (µM/min · 1 µg Enz) [5]: 15.4 | ration of digesting rate (pepsin II/ pepsin I) [5]: 712 | pepsin II digesting rate (µM/min · 1 µg Enz) [6]: 4.23 | ration of digesting rate (pepsin II/ pepsin I) [6]: 2070 | pepsin II digesting rate (µM/min · 1 µg Enz) [7]: 70.7 | ration of digesting rate (pepsin II/ pepsin I) [7]: 29.9 | pepsin II digesting rate (µM/min · 1 µg Enz) [8]: 15.8 | ration of digesting rate (pepsin II/ pepsin I) [8]: 105 | pepsin II digesting rate (µM/min · 1 µg Enz) [9]: 48.4 | ration of digesting rate (pepsin II/ pepsin I) [9]: 177 | pepsin II digesting rate (µM/min · 1 µg Enz) [10]: 29.8 | ration of digesting rate (pepsin II/ pepsin I) [10]: 169 | pepsin II digesting rate (µM/min · 1 µg Enz) [11]: 25.4 | ration of digesting rate (pepsin II/ pepsin I) [11]: 402 | pepsin II digesting rate (µM/min · 1 µg Enz) [12]: 4.1 | ration of digesting rate (pepsin II/ pepsin I) [12]: 175 | pepsin II digesting rate (µM/min · 1 µg Enz) [13]: 5.56 | ration of digesting rate (pepsin II/ pepsin I) [13]: 890 | pepsin II digesting rate (µM/min · 1 µg Enz) [14]: 40.5 | ration of digesting rate (pepsin II/ pepsin I) [14]: 161 | pepsin II digesting rate (µM/min · 1 µg Enz) [15]: 21.2 | ration of digesting rate (pepsin II/ pepsin I) [15]: 194 | pepsin II digesting rate (µM/min · 1 µg Enz) [16]: 36.8 | ration of digesting rate (pepsin II/ pepsin I) [16]: 219 | pepsin II digesting rate (µM/min · 1 µg Enz) [17]: 12.1 | ration of digesting rate (pepsin II/ pepsin I) [17]: 2080 | pepsin II digesting rate (µM/min · 1 µg Enz) [18]: 33.1 | ration of digesting rate (pepsin II/ pepsin I) [18]: 120 | pepsin II digesting rate (µM/min · 1 µg Enz) [19]: 55.4 | ration of digesting rate (pepsin II/ pepsin I) [19]: 198 | pepsin II digesting rate (µM/min · 1 µg Enz) [20]: 73.1 | ration of digesting rate (pepsin II/ pepsin I) [20]: 74.2 | pepsin II digesting rate (µM/min · 1 µg Enz) [21]: 10.9 | ration of digesting rate (pepsin II/ pepsin I) [21]: 563 | pepsin II digesting rate (µM/min · 1 µg Enz) [22]: 3.5 | ration of digesting rate (pepsin II/ pepsin I) [22]: 104 | pepsin II digesting rate (µM/min · 1 µg Enz) [23]: 49.6 | ration of digesting rate (pepsin II/ pepsin I) [23]: 158 | pepsin II digesting rate (µM/min · 1 µg Enz) [24]: 54.4 | ration of digesting rate (pepsin II/ pepsin I) [24]: 334 | pepsin II digesting rate (µM/min · 1 µg Enz) [25]: 62 | ration of digesting rate (pepsin II/ pepsin I) [25]: 621 | pepsin II digesting rate (µM/min · 1 µg Enz) [26]: 45.8 | ration of digesting rate (pepsin II/ pepsin I) [26]: 201 | pepsin II digesting rate (µM/min · 1 µg Enz) [27]: 3.85 | ration of digesting rate (pepsin II/ pepsin I) [27]: 410 | pepsin II digesting rate (µM/min · 1 µg Enz) [28]: 9.2 | ration of digesting rate (pepsin II/ pepsin I) [28]: 757 | pepsin II digesting rate (µM/min · 1 µg Enz) [29]: 5.9 | ration of digesting rate (pepsin II/ pepsin I) [29]: 309

B2: human pepsin I (protein)
chain: VDEQPLENYLDMEYFGTIGIGTPAQDFTVVFDTGSSNLWVPSVYCSSLACTNHNRFNPEDSSTYQSTSETVSITYGTGSMTGILGYDTVQVGGISDTNQIFGLSETEPGSFLYYAPFDGILGLAYPSISSSGATPVFDNIWNQGLVSQDLFSVYLSADDQSGSVVIFGGIDSSYYTGSLNWVPVTVEGYWQITVDSITMNGEAIACAEGCQAIVDTGTSLLTGPTSPIANIQSDIGASENSDGDMVVSCSAISSLPDIVFTINGVQYPVPPSAYILQSEGSCISGFQGMNLPTESGELWILGDVFIRQYFTVFDRANNQVGLAPVA
pepsin I digesting rate (µM/min · 1 µg Enz) [1]: 0.0578 | pepsin I digesting rate (µM/min · 1 µg Enz) [2]: 2.62 | pepsin I digesting rate (µM/min · 1 µg Enz) [3]: 0.0082 | pepsin I digesting rate (µM/min · 1 µg Enz) [4]: 0.0284 | pepsin I digesting rate (µM/min · 1 µg Enz) [5]: 0.0216 | pepsin I digesting rate (µM/min · 1 µg Enz) [6]: 0.002 | pepsin I digesting rate (µM/min · 1 µg Enz) [7]: 2.37 | pepsin I digesting rate (µM/min · 1 µg Enz) [8]: 0.15 | pepsin I digesting rate (µM/min · 1 µg Enz) [9]: 0.274 | pepsin I digesting rate (µM/min · 1 µg Enz) [10]: 0.176 | pepsin I digesting rate (µM/min · 1 µg Enz) [11]: 0.0632 | pepsin I digesting rate (µM/min · 1 µg Enz) [12]: 0.0235 | pepsin I digesting rate (µM/min · 1 µg Enz) [13]: 0.0063 | pepsin I digesting rate (µM/min · 1 µg Enz) [14]: 0.251 | pepsin I digesting rate (µM/min · 1 µg Enz) [15]: 0.11 | pepsin I digesting rate (µM/min · 1 µg Enz) [16]: 0.168 | pepsin I digesting rate (µM/min · 1 µg Enz) [17]: 0.0058 | pepsin I digesting rate (µM/min · 1 µg Enz) [18]: 0.277 | pepsin I digesting rate (µM/min · 1 µg Enz) [19]: 0.28 | pepsin I digesting rate (µM/min · 1 µg Enz) [20]: 0.985 | pepsin I digesting rate (µM/min · 1 µg Enz) [21]: 0.0194 | pepsin I digesting rate (µM/min · 1 µg Enz) [22]: 0.0335 | pepsin I digesting rate (µM/min · 1 µg Enz) [23]: 0.313 | pepsin I digesting rate (µM/min · 1 µg Enz) [24]: 0.163 | pepsin I digesting rate (µM/min · 1 µg Enz) [25]: 0.0998 | pepsin I digesting rate (µM/min · 1 µg Enz) [26]: 0.228 | pepsin I digesting rate (µM/min · 1 µg Enz) [27]: 0.0094 | pepsin I digesting rate (µM/min · 1 µg Enz) [28]: 0.0122 | pepsin I digesting rate (µM/min · 1 µg Enz) [29]: 0.0191

— patent publication US6441131
